Measurements published in the DeepSol protein solubility set.

Assay: soluble on expression in E. coli; label from the status in PepcDB or PDB records

Sequence | soluble on expression in E. coli
MKMAKSEDERLAEEWAAALGEDPNAPDIDVDEILAAPLEELKNTAPPITDDERRKLDTIMDIPVTISMEVGRSKISIRNLLQLNQGSVVELDRIAGESLDVMVNGTLIAHGEVVVVNDKFGIRLTDVISQTERIKKLR | not soluble
GLVNAHTHLEMTPLIGAFSELELTEMLGSGTALFNRLGNGEFEYLVEAGVELAALNFLLGGVTTVNSMDARPAAGAEAFGEAGLRGFFGPAISDLFWDQPVDQQFSRAREFVETYHDTYDGRIRATICPHDDWSCTRQLWERTASLAAEYPDLLVHTHLLELEESNTMARANGGEDSVGLLDDVGLLDDRLVAAHFRLGDEEDIQRTAEADAAVAHCPSVFCYWNPDGETQWTPVPELRAAGVDVGVGIDDHYWHDSYSMFGEARQARLAANLKRSAGQFDSMELIRMLTIEGARALGMGDE | not soluble
HHHHHHMASSAQDGNNPLFSPYKMGKFNLSHRVVLAPMTRCRALNNIPQAALGEYYEQRATAGGFLITEGTMISPTSAGFPHVPGIFTKEQVREWKKIVDVVHAKGAVIFCQLWHVGRASHEVYQPAGAAPISSTEKPISNRWRILMPDGTHGIYPKPRAIGTYEISQVVEDYRRSALNAIEAGFDGIEIHGAHGYLIDQFLKDGINDRTDEYGGSLANRCKFITQVVQAVVSAIGADRVGVRVSPAIDHLDAMDSNPLSLGLAVVERLNKIQLHSGSKLAYLHVTQPRYVAYGQTEAGRLGSEEEEARLMRTLRNAYQGTFICSGGYTRELGIEAVAQGDADLVSYGRLFISNPDLVMRIKLNAPLNKFNRKTFYTQDPVVGYTDYPFLQGNGSNGPLSRL | soluble
MGENSLWNVYKTVSFWKVMKNFIIIQIARYTPCLSVKNWLYRTFLRMKVGKKTSFALMVMPDIMFPEKITVGENSIIGYNTTLLAHEYLIREYRLGEIVIGNEVMIGANVTILPGVKIGDGATVSAGTLVHRDVPSGAFVGGNPMRIIYTLEHHHHHH | soluble
SMQEEDTFRELRIFLRNVTHRLAIDKRFRVFTKPVDPDEVPDYVTVIKQPMDLSSVISKIDLHKYLTVKDYLRDIDLICSNALEYNPDRDPGDRLIRHRACALRDTAYAIIKEELDEDFEQLCEEIQESR | soluble
DFFRSAIDQAPSFMAVLDGRDHIFRIVNQAYHQLVGRRDLLNRTVREALPELDGQGFFELLDEVFLTGLAFTRLAAPVLLRRGPEIERSFVDFIMCPLRGPDGQVRGVFVEGHDVT | not soluble
MDMLKENVIQNNEARTESSVEPSHPDMMETVPEEQQKPISHIDDLLSETANLMAVKEQLLKEIAENEHIHSMQMRALQNLPQEAILPLQYHADPRRRHRMQKPESYKTVICQAWLESKTCAFAENCRFAHGEEELRPSLIEARQNNKYRTKLCDKYTTTGLCPYGKRCLFIHPDNGPNAYIRADKLFEVSQRHALADLRDQMEHHIMNGGRSTAGPQQFDMFARPCTPDEPAANMPLGPTPVSIRGPRYELPSKKPLETEEAGNRPPSSWPLDPSTFFALDSLNMATRPISPFESMLIGAAGNMQYSMLGKQSTPGGVSGYSSSGSTPSQDSDSSPLTAASAAADAACQANSESAQSILLKSINNPMIGNETTLPIPGLDQLAMDIAKHLELW | not soluble
MDKIYIHDMEFYGYHGVFPEENKLGQRFKVDLTVELDLKRAGESDDLEHSVNYGELFELCRKVVEDRTYKLVESIAENIATDILKQYESISRCTIKVIKPDPPIPGHYRAVAVEITRERP | not soluble
MKRILIVTGQSGSGKSSALQVLEDLGYYCIDNLPLALLPEIVAKLDHENNLEQLALGVDVRSTRADMQEFDLVFEQLQKHGTVDVIYLTTQDQELIARFSASRRPHPLASRFKSLNECIQEEKQLLLPIQFRSTVHIDTTDKSVHDLKHTLLSKLGQSDKLILILQSFGYKHGIPLDADYVFDVRHLPNPHWDLELRRFSGLDEPVRRFLESSDQTNEMFDDIFHFLDKWLPVFAEGHRHYMTVSIGCTGGQHRSVYIVDRLKKALEAKWSIQVLHREMKHWS | not soluble
MGSDKIHHHHHHMERLAQPSRFLQRKLFEVNLLKPVTVEKEAPIGEIRRILRDTGSRIVLVVNGEGRLEGVIYRSSVILVTSRKSEAKALDIMEEPAVVLKPSYSLEEAVFSMLKFDEWYAPVVNDANRLVGVLGLETPIRLLLEAGFYRGYTASDAMTRDVEYVLEGDSLTRVWEIMVERRYAGVPVVDQRMVVRGIVTQYDLIRKGYTRLGLESEAPPHRVRVESVMTRSVIYVAESDNLEDVARIMLDRGVGRVPVVKSRDSRVLTGIIDREDLVRLYFKSRGRASL | not soluble
MGSDKIHHHHHHMEHTYRLVISCPDRVGIVAKVSNFLSTYNGWITEASHHSDTQAGWFFMRHEIKAESIPFGLDQFRAAFEPIAREFNMNWHIADSARPKRVILMCSKESHCLADLLHRWHSKELNCEIVAVISNHDDLRRMVEWHEIPYHHVPVSKENKAEAFAHIDELFQQYETDVVVLARYMQILPAELCGKYSGKVINIHHSFLPSFAGARPYHQAYSRGVKLIGATCHYVTQDLDEGPIIEQDVIRISHSDSIEDMVRLGKDVEKNVLARGLRSHIEDRVITYENKTVVFD | not soluble
MFLVTGATGDIGRRVIRLLREHNHSVRGFARLTSRYGELEHRGANIFIGDLRREQDIEKACQGVQYIISAHGSDNDALTLDYRANIALIDQAKANGVQHFVFISVLGAERGYEDAPVFKAKRAVENYLAASGLNYTILRPAGLASNLLPLAERFRETGLYLLIGDPKNRTSIVSTDDLARIVVDSVTVPEARNQIFSVGGPEILLREDIPQIFSHIFKKEPIVVNSPLLVIDGLRGVLGLINPEAQQALGTFRTLLSNEFFCRKDEIAKLEQTFNFPLETLESFLRRYLAVLEHHHHHH | not soluble
EVQLLEESGPGLVQPSQSLSITCTVSGFSLTSYGVHWVRQSPGKGLEWLGVIWSGGSTDYNAAFISRLSISKDNSKSQVFFKMNSLQADDTAIYYCARNRGYSYAMDSWGQGTSVTVSSAKTTPPSVYPLAPGSAAQTNSMVTLGCLVKGYFPEPVTVTWNSGSLSSGVHTFPAVLQSDLYTLSSSVTVPSSTWPSETVTCNVAHPASSTKVDKKIVPRDCTS | soluble
MSLLRIIDTETCGLQGGIVEIASVDVIDGKIVNPMSHLVRPDRPISPQAMAIHRITEAMVADKPWIEDVIPHYYGSEWYVAHNASFDRRVLPEMPGEWICTMKLARRLWPGIKYSNMALYKTRKLNVQTPPGLHHHRALYDCYITAALLIDIMNTSGWTAEQMADITGRPSLMTTFTFGKYRGKAVSDVAERDPGYLRWLFNNLDSMSPELRLTLKHYLENTEGHHHHHH | soluble
MKYSLCTISFRHQLISFTDIVQFAYENGFEGIELWGTHAQNLYMQEYETTERELNCLKDKTLEITMISDYLDISLSADFEKTIEKCEQLAILANWFKTNKIRTFAGQKGSADFSQQERQEYVNRIRMICELFAQHNMYVLLETHPNTLTDTLPSTLELLGEVDHPNLKINLDFLHIWESGADPVDSFQQLRPWIQHYHFKNISSADYLHVFEPNNVYAAAGNRTGMVPLFEGIVNYDEIIQEVRDTDHFASLEWFGHNAKDILKAEMKVLTNRNLEVVTSENLYFQ | soluble
AGHMQQEAVAPEDSAVVKLATDSFNEYIQSHDLVLAEFFAPWCGHCKNMAPEYVKAAETLVEKNITLAQIDCTENQDLCMEHNIPGFPSLKIFKNSDVNNSIDYEGPRTAEAIVQFMIKQSQPAVAVVADLPAYLANETFVTPVIVQSGKIDADFNATFYSMANKHFNDYDFVSAENADDDFKLSIYLPSAMDEPVVYNGKKADIADADVFEKWLQVEALPYFGEIDGSVFAQYVESGLPLGYLFYNDEEELEEYKPLFTELAKKNRGLMNFVSIDARKFGRHAGNLNMKEQFPLFAIHDMTEDLKYGLPQLSEEAFDELSDKIVLESKAIESLVKDFLKGDASPIVKSQEIFENQDSSVFQLVGKNHDEIVNDPKKDVLVLYYAPWCGHCKRLAPTYQELADTYANATSDVLIAKLDHTENDVRGVVIEGYPTIVLYPGGKKSESVVYQGSRSLDSLFDFIKENGHFDVDGKALYEEAQEKAAEEADADAELADEEDAIHDEL | soluble
IGFQRGAQGEGLVVIDLQGTNTPVDVQQQGSKVVVRFPGIKIPTHLARRLNTTDFATPVASIDSYNDGSNGVISIQSTGSYEYMAYQAENKLTISLKRPQDNV | not soluble
MAKEKKRGFFSWLGLGRQSEEPAAEPLATEKEGVTEQEDVIEQTGVIEPTDVIEQTVEHVISEKTTEAPAENAFIEVELREQVAAVIPTEPNNAIMSEGVPDTLPERAVAESVVAELVETGDNAAIVHDEIIEPITQVTEAGGELSLVKPGIEGDTTEQGGPTDNLPKRSLTEDNLIIDVPTPQAVVEESRVDAVEQPTETSEVEEVEEVEEVEEVEEVEEKIIPVAAQEQERPTKEGFFARLKRSLIKTKQNLGSGFMGLFSGKKIDDDLFEELEEQLLIADVGVETTRKIITSLTEHTSRKQLKDADALYGKLKEEMSEILSKVDKPLDVSGKSPYVILMVGVNGVGKTTTIGKLARQFQAEGKSVMLAAGDTFRAAAVEQLQVWGERNKIAVVAQHTGADSASVIFDAIQAAKARGIDVLLADTAGRLQNKAHLMEELKKIVRVMKKLDGDAPHEVMLTLDASTGQNAVSQAKLFNEAVGLTGITLTKLDGTAKGGVIFAIADQFEIPIRYIGVGEGIEDLRPFKADEFIEALFARED | not soluble
MAHQLLIGKGMITLNLKRIFLALTLLPLFAVAADDCALSDPTLTVQAYTVNPQTERVKMYWQKANGEAWGTLHALLADINSQGQVQMAMNGGIYDESYAPLGLYIENGQQKVALNLASGEGNFFIRPGGVFYVAGDKVGIVRLDAFKTSKEIQFAVQSGPMLMENGVINPRIHPNVASSKIRNGVGINKHGNAVFLLSQQATNFYDFACYAKAKLNVEQLLYLDGTISHMYMKGGAIPWQRYPFVTMISVERKGLEHHHHHH | not soluble
MNVTPWEVEGVIDYSKLIEEFGMQPFSEVLPEIDNPHILMRRGAIFGHRDYWRIIEAMQKKEPWAVMSGFMPSGLPHFGHKMTMDEIVWHQSAGGKAFVAIADMEAHSVRGLSWEKTRELGMLYIKSIIALGLREDAVIYFQSKSSHVKDLAFELSAEVNFSELRAIYGFNSDTSLAKMFVTAIQAADILHPQLSDFGGPKPVVVPVGADQDPHMRLTRDLAARISIFSFEPVEGGVRVRSRKGAEYLSSLRDLEFDKKIYEEHMDIFGEAEEIERAVRKIEVEIGGFAFIPPSSTYHRFTTGLTGGKMSSSKPESYISLLDPPEEGAKKVMKAFTGGRATAEEQRRLGGEPDRCVVFELYSFHLIDSDEELNQIEAECREGRLLCGKCKKMAAELVKSFLKEHQEKMEAVDLSNYTIIG | not soluble
MNVLRSGIVTMLLLAAFSVQAACTWPAWEQFKKDYISQEGRVIDPSDARKITTSEGQSYGMFSALAANDRAAFDNILDWTQNNLAQGSLKERLPAWLWGKKENSKWEVLDSNSASDGDVWMAWSLLEAGRLWKEQRYTDIGSALLKRIAREEVVTVPGLGSMLLPGKVGFAEDNSWRFNPSYLPPTLAQYFTRFGAPWTTLRETNQRLLLETAPKGFSPDWVRYEKDKGWQLKAEKTLISSYDAIRVYMWVGMMPDSDPQKARMLNRFKPMATFTEKNGYPPEKVDVATGKAQGKGPVGFSAAMLPFLQNRDAQAVQRQRVADNFPGSDAYYNYVLTLFGQGWDQHRFRFSTKGELLPDWGQECANSH | soluble
SAAVGAEARGAWCVPCLVSLDTLQELCRKEKLTCKSIGITKRNLNNYEVEYLCDYKVVKDMEYYLVKWKGWPDSTNTWEPLQNLKCPLLLQQFSNDKHNYLSQVITSEEAERRGQFYDNKGITYLFDLDYESDEFTVDAARYGNVSHFVNHSCDPNLQVFNVFIDNLDTRLPRIALFSTRTINAGEELTFDYQMKGSGDISSDSIDHSPAKKRVRTVCKCGAVTCRGYLN | soluble
